# Data taken from US20210403591A1 (OSSIANIX, published 2021).
# How the values were obtained:
# [1] = biological target: T1, mTfR-1 K191A on Expi293 cells (mouse, UniProt Q62351 1-763); test: FACS, transfected Expi293 cells
# T1 construct: whole, on cells
# Method: (§1) Transfected Expi293 cells were harvested and 2×10⁵ cells were transferred into V-bottom 96-well plate for staining. The cells were blocked in PBS containing 1% BSA (FACS buffer) for 10 min on ice, centrifuged to remove the buffer and 1 μl of 8D3-hFc formatted antibody, Clone C-hFc or Clone C variants 18 and 13 (Table 1), all at 1 mg/ml, was added to the wells. The cells were co-stained with mouse Tf-Alexa647 (Jackson ImmunoResearch). After 30 minutes on ice, the cells were washed and incubated with anti-hFc-PE (eBioscience) for 20 minutes on ice, washed again and resuspended in […] of FACS buffer containing 5 μl of propidium iodide (PI) to exclude dead cells from the analysis. The percentage of double-positive cells that stained with mTf and the tested antibody was determined on a CytoFlex cytometer (Beckman Coulter). The percentage of cells in the double positive quadrant (Q2) for WT mTfR-1 was used for normalization.
# [2] = biological target: T2, mTfR-1 Q193A on Expi293 cells (mouse, UniProt Q62351 1-763); test: FACS, transfected Expi293 cells
# T2 construct: whole, on cells
# Method: as §1
# [3] = biological target: T3, mTfR-1 V194A on Expi293 cells (mouse, UniProt Q62351 1-763); test: FACS, transfected Expi293 cells
# T3 construct: whole, on cells
# Method: as §1
# [4] = biological target: T4, mTfR-1 S196A on Expi293 cells (mouse, UniProt Q62351 1-763); test: FACS, transfected Expi293 cells
# T4 construct: whole, on cells
# Method: as §1
# [5] = biological target: T5, mTfR-1 S197A on Expi293 cells (mouse, UniProt Q62351 1-763); test: FACS, transfected Expi293 cells
# T5 construct: whole, on cells
# Method: as §1
# [6] = biological target: T6, mTfR-1 G199A on Expi293 cells (mouse, UniProt Q62351 1-763); test: FACS, transfected Expi293 cells
# T6 construct: whole, on cells
# Method: as §1
# [7] = biological target: T7, mTfR-1 Q200A on Expi293 cells (mouse, UniProt Q62351 1-763); test: FACS, transfected Expi293 cells
# T7 construct: whole, on cells
# Method: as §1
# [8] = biological target: T8, mTfR-1 T228A on Expi293 cells (mouse, UniProt Q62351 1-763); test: FACS, transfected Expi293 cells
# T8 construct: whole, on cells
# Method: as §1
# [9] = biological target: T9, mTfR-1 E229A on Expi293 cells (mouse, UniProt Q62351 1-763); test: FACS, transfected Expi293 cells
# T9 construct: whole, on cells
# Method: as §1
# [10] = biological target: T10, mTfR-1 V230A on Expi293 cells (mouse, UniProt Q62351 1-763); test: FACS, transfected Expi293 cells
# T10 construct: whole, on cells
# Method: as §1
# [11] = biological target: T11, mTfR-1 S231A on Expi293 cells (mouse, UniProt Q62351 1-763); test: FACS, transfected Expi293 cells
# T11 construct: whole, on cells
# Method: as §1
# [12] = biological target: T12, mTfR-1 N253A on Expi293 cells (mouse, UniProt Q62351 1-763); test: FACS, transfected Expi293 cells
# T12 construct: whole, on cells
# Method: as §1
# [13] = biological target: T13, mTfR-1 G254A on Expi293 cells (mouse, UniProt Q62351 1-763); test: FACS, transfected Expi293 cells
# T13 construct: whole, on cells
# Method: as §1
# [14] = biological target: T14, mTfR-1 S255A on Expi293 cells (mouse, UniProt Q62351 1-763); test: FACS, transfected Expi293 cells
# T14 construct: whole, on cells
# Method: as §1
# [15] = biological target: T15, mTfR-1 N277A on Expi293 cells (mouse, UniProt Q62351 1-763); test: FACS, transfected Expi293 cells
# T15 construct: whole, on cells
# Method: as §1
# [16] = biological target: T16, mTfR-1 I279A on Expi293 cells (mouse, UniProt Q62351 1-763); test: FACS, transfected Expi293 cells
# T16 construct: whole, on cells
# Method: as §1
# [17] = biological target: T17, mTfR-1 P325A on Expi293 cells (mouse, UniProt Q62351 1-763); test: FACS, transfected Expi293 cells
# T17 construct: whole, on cells
# Method: as §1
# [18] = biological target: T18, mTfR-1 S326A on Expi293 cells (mouse, UniProt Q62351 1-763); test: FACS, transfected Expi293 cells
# T18 construct: whole, on cells
# Method: as §1
# [19] = biological target: T19, mTfR-1 S328A on Expi293 cells (mouse, UniProt Q62351 1-763); test: FACS, transfected Expi293 cells
# T19 construct: whole, on cells
# Method: as §1
# [20] = biological target: T20, mTfR-1 G330A on Expi293 cells (mouse, UniProt Q62351 1-763); test: FACS, transfected Expi293 cells
# T20 construct: whole, on cells
# Method: as §1
# [21] = biological target: T21, mTfR-1 P332A on Expi293 cells (mouse, UniProt Q62351 1-763); test: FACS, transfected Expi293 cells
# T21 construct: whole, on cells
# Method: as §1
# [22] = biological target: T22, mTfR-1 N333A on Expi293 cells (mouse, UniProt Q62351 1-763); test: FACS, transfected Expi293 cells
# T22 construct: whole, on cells
# Method: as §1
# [23] = biological target: T23, mTfR-1 P335A on Expi293 cells (mouse, UniProt Q62351 1-763); test: FACS, transfected Expi293 cells
# T23 construct: whole, on cells
# Method: as §1
# [24] = biological target: T24, mTfR-1 I378A on Expi293 cells (mouse, UniProt Q62351 1-763); test: FACS, transfected Expi293 cells
# T24 construct: whole, on cells
# Method: as §1
# [25] = biological target: T25, mTfR-1 K380A on Expi293 cells (mouse, UniProt Q62351 1-763); test: FACS, transfected Expi293 cells
# T25 construct: whole, on cells
# Method: as §1
# [26] = biological target: T26, mTfR-1 V382A on Expi293 cells (mouse, UniProt Q62351 1-763); test: FACS, transfected Expi293 cells
# T26 construct: whole, on cells
# Method: as §1
# [27] = biological target: T27, mTfR-1 L383A on Expi293 cells (mouse, UniProt Q62351 1-763); test: FACS, transfected Expi293 cells
# T27 construct: whole, on cells
# Method: as §1
# [28] = biological target: T28, mTfR-1 K384A on Expi293 cells (mouse, UniProt Q62351 1-763); test: FACS, transfected Expi293 cells
# T28 construct: whole, on cells
# Method: as §1
# [29] = biological target: purified WT mTfR-1 (ELISA coat) (mouse, UniProt Q62351 89-763); test: ELISA, coated purified mTfR-1
# Sequence of purified WT mTfR-1 (ELISA coat) (Q62351 89-763): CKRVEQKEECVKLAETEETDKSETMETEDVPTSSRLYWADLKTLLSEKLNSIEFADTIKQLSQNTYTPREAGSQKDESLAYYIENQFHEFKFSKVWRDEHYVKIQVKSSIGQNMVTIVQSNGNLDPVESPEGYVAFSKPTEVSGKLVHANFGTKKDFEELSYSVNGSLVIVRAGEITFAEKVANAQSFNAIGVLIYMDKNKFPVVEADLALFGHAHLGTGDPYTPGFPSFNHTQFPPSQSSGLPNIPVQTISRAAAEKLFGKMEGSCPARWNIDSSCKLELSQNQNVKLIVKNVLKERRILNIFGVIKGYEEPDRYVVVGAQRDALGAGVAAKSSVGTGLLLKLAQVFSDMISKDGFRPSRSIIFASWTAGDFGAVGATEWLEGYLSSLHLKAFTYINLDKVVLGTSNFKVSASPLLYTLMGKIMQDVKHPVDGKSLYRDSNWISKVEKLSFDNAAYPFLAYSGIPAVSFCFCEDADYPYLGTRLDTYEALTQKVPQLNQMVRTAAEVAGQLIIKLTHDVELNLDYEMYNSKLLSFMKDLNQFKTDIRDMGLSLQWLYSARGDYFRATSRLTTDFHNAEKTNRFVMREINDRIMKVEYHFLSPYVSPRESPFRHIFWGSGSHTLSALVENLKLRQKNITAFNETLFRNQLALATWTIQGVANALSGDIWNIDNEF
# T13 sequence (Q62351 whole entry G254A): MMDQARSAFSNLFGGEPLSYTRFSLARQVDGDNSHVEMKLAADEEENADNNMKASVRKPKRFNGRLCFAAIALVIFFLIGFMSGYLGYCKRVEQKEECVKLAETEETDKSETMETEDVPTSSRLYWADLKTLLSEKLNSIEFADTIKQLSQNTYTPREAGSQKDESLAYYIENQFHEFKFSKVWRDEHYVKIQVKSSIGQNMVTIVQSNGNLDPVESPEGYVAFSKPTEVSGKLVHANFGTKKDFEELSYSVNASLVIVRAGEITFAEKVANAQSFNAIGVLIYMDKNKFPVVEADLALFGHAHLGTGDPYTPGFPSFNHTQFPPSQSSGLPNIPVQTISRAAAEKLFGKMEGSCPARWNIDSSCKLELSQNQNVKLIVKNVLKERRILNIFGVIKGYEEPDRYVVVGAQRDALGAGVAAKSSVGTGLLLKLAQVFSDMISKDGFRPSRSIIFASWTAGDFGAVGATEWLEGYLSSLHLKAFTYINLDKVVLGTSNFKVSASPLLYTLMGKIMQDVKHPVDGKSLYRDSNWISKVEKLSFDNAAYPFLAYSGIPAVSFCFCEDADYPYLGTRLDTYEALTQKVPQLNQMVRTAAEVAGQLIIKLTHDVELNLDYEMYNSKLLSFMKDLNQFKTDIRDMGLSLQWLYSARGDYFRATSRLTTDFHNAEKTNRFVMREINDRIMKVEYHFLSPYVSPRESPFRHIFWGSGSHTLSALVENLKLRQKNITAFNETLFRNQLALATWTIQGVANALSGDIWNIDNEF
# T10 sequence (Q62351 whole entry V230A): as the sequence (Q62351 whole entry G254A) above, with V230A, A254G counted along it
# T3 sequence (Q62351 whole entry V194A): as the sequence (Q62351 whole entry G254A) above, with V194A, A254G counted along it
# T8 sequence (Q62351 whole entry T228A): as the sequence (Q62351 whole entry G254A) above, with T228A, A254G counted along it
# T6 sequence (Q62351 whole entry G199A): as the sequence (Q62351 whole entry G254A) above, with G199A, A254G counted along it
# T2 sequence (Q62351 whole entry Q193A): as the sequence (Q62351 whole entry G254A) above, with Q193A, A254G counted along it
# T20 sequence (Q62351 whole entry G330A): as the sequence (Q62351 whole entry G254A) above, with A254G, G330A counted along it
# T16 sequence (Q62351 whole entry I279A): as the sequence (Q62351 whole entry G254A) above, with A254G, I279A counted along it
# T11 sequence (Q62351 whole entry S231A): as the sequence (Q62351 whole entry G254A) above, with S231A, A254G counted along it
# T14 sequence (Q62351 whole entry S255A): as the sequence (Q62351 whole entry G254A) above, with A254G, S255A counted along it
# T19 sequence (Q62351 whole entry S328A): as the sequence (Q62351 whole entry G254A) above, with A254G, S328A counted along it
# T17 sequence (Q62351 whole entry P325A): as the sequence (Q62351 whole entry G254A) above, with A254G, P325A counted along it
# T4 sequence (Q62351 whole entry S196A): as the sequence (Q62351 whole entry G254A) above, with S196A, A254G counted along it
# T21 sequence (Q62351 whole entry P332A): as the sequence (Q62351 whole entry G254A) above, with A254G, P332A counted along it
# T25 sequence (Q62351 whole entry K380A): as the sequence (Q62351 whole entry G254A) above, with A254G, K380A counted along it
# T18 sequence (Q62351 whole entry S326A): as the sequence (Q62351 whole entry G254A) above, with A254G, S326A counted along it
# T27 sequence (Q62351 whole entry L383A): as the sequence (Q62351 whole entry G254A) above, with A254G, L383A counted along it
# T1 sequence (Q62351 whole entry K191A): as the sequence (Q62351 whole entry G254A) above, with K191A, A254G counted along it
# T15 sequence (Q62351 whole entry N277A): as the sequence (Q62351 whole entry G254A) above, with A254G, N277A counted along it
# T12 sequence (Q62351 whole entry N253A): as the sequence (Q62351 whole entry G254A) above, with N253A, A254G counted along it
# T9 sequence (Q62351 whole entry E229A): as the sequence (Q62351 whole entry G254A) above, with E229A, A254G counted along it
# T26 sequence (Q62351 whole entry V382A): as the sequence (Q62351 whole entry G254A) above, with A254G, V382A counted along it
# T5 sequence (Q62351 whole entry S197A): as the sequence (Q62351 whole entry G254A) above, with S197A, A254G counted along it
# T22 sequence (Q62351 whole entry N333A): as the sequence (Q62351 whole entry G254A) above, with A254G, N333A counted along it
# T28 sequence (Q62351 whole entry K384A): as the sequence (Q62351 whole entry G254A) above, with A254G, K384A counted along it
# T24 sequence (Q62351 whole entry I378A): as the sequence (Q62351 whole entry G254A) above, with A254G, I378A counted along it
# T7 sequence (Q62351 whole entry Q200A): as the sequence (Q62351 whole entry G254A) above, with Q200A, A254G counted along it
# T23 sequence (Q62351 whole entry P335A): as the sequence (Q62351 whole entry G254A) above, with A254G, P335A counted along it
% double-positive cells vs WT [4] [%],% double-positive cells vs WT [5] [%],% double-positive cells vs WT [6] [%],% double-positive cells vs WT [7] [%],% double-positive cells vs WT [8] [%],% double-positive cells vs WT [9] [%],% double-positive cells vs WT [10] [%],% double-positive cells vs WT [11] [%],% double-positive cells vs WT [13] [%],% double-positive cells vs WT [15] [%],% double-positive cells vs WT [16] [%],% double-positive cells vs WT [17] [%],% double-positive cells vs WT [18] [%],% double-positive cells vs WT [19] [%],% double-positive cells vs WT [20] [%],% double-positive cells vs WT [21] [%],% double-positive cells vs WT [22] [%],% double-positive cells vs WT [23] [%],% double-positive cells vs WT [24] [%],% double-positive cells vs WT [25] [%],Binder,further results
74,100,69,66,89,68,81,65,58,56,74,119,31,141,90,57,90,94,92,66,"8D3 antibody (anti-mouse TfR-1 control; 8D3-hFc formatted antibody) (antibody, V domains shown) VH: EVQLVESGGGLVQPGNSLTLSCVASGFTFSNYGMHWIRQAPKKGLEWIAMIYYDSSKMNYADTVKGRFTISRDNSKNTLYLEMNSLRSEDTAMYYCAVPTSHYVVDVWGQGVSVTVSS VL: DIQMTQSPASLSASLEEIVTITCQASQDIGNWLAWYQQKPGKSPQLLIYGATSLADGVPSRFSGSRSGTQFSLKISRVQVEDIGIYYCLQAYNTPWTFGGGTKLELK",% double-positive cells vs WT [1]: 91%; % double-positive cells vs WT [2]: 63%; % double-positive cells vs WT [3]: 60%; % double-positive cells vs WT [12]: 87%; % double-positive cells vs WT [14]: 56%; % double-positive cells vs WT [26]: 82%; % double-positive cells vs WT [27]: 73%; % double-positive cells vs WT [28]: 35%
123,111,72,90,68,81,58,283,35,137,177,148,136,50,307,257,213,169,142,193,"Clone C VNAR-hFc fusion (Fc fusion, not shown: a dimerising Fc or GST, bivalent VNAR-Fc; also called Clone C-hFc) ARVDQTPQTITKETGESLTINCVLRDSNCALSSTYWYRKKSGSTNEENISKGGRYVETVNSGSKSFSLRINDLTVEDSGTYRCNVVQYPSYNNYFWCDVYGDGTAVTVN",% double-positive cells vs WT [1]: 51%; % double-positive cells vs WT [2]: 152%; % double-positive cells vs WT [3]: 184%; % double-positive cells vs WT [12]: 26%; % double-positive cells vs WT [14]: 14%; % double-positive cells vs WT [26]: 357%; % double-positive cells vs WT [27]: 328%; % double-positive cells vs WT [28]: 187%
47,56,36,72,65,43,47,101,22,84,85,83,77,22,87,79,94,75,115,81,"Clone C variant 13 VNAR-hFc (Fc fusion, not shown: a dimerising Fc or GST, also called Clone C v13; Clone C var; 13) ARVDQTPQTITKETGESLTINCVLRDSNCALSSTYWYRKKSGSTNEENISKGGRYVETVNSGSKSFSLRINDLTVEDSGTYRCNVVQYPQQDNYFWCDVYGDGTAVTVN",EC50 [29]: 0.8 nM; % double-positive cells vs WT [26]: 111%; % double-positive cells vs WT [27]: 121%; % double-positive cells vs WT [28]: 85%
104,66,42,171,45,51,59,173,32,155,206,175,129,20,231,218,161,138,80,162,"Clone C variant 18 VNAR-hFc (Fc fusion, not shown: a dimerising Fc or GST, also called Clone C v18; Clone C var; 18) ARVDQTPQTITKETGESLTINCVLRDSNCALSSTYWYRKKSGSTNEENISKGGRYVETVNSGSKSFSLRINDLTVEDSGTYRCNVVQYPQYPNYFWCDVYGDGTAVTVN",EC50 [29]: 0.69 nM; % double-positive cells vs WT [1]: 25%; % double-positive cells vs WT [2]: 178%; % double-positive cells vs WT [3]: 199%; % double-positive cells vs WT [12]: 10%; % double-positive cells vs WT [14]: 23%; % double-positive cells vs WT [26]: 241%; % double-positive cells vs WT [27]: 354%; % double-positive cells vs WT [28]: 147%
